# Measurements taken from US20180142007A1 (AXON NEUROSCIENCE, published 2018).
# Positions count from the first letter of the chain named.
# B1: chimeric DC8E8 (isotype not stated where tested) (antibody)
# VH: QVQLQQSGPELVKPGTSVKMPCKASGYIFTDYVISWVKQRTGQGLEWIGEIFPRSGSTYYNEKFKGKATLTADKSSNTAYMQLSSVTSEDSAVYFCARDYYGTSFAMDYWGQGTSVTVSS
# light: DIVMSQSPSSLAVSAGEKVTMSCKSSQSLLNSRTRKNYLAWYQQKPGQSPKLLIYWASTRESGVPDRFTGSGSGTDFTLTISSVQAEDLAVYYCKQSFYLRTFGGGTKLDIKRTVAAPSVFIFPPSDEQLKSGTASVVCLLNNFYPREAKVQWKVDNALQSGNSQESVTEQDSKDSTYSLSSTLTLSKADYEKHKVYACEVTHQGLSSPVTKSFNRGEC
# notes: Whole chimeric antibody with human constant regions; also called chimeric antibody
# B2: mouse monoclonal antibody DC8E8 (antibody, mouse IgG1)
# heavy: QVQLQQSGPELVKPGTSVKMPCKASGYIFTDYVISWVKQRTGQGLEWIGEIFPRSGSTYYNEKFKGKATLTADKSSNTAYMQLSSVTSEDSAVYFCARDYYGTSFAMDYWGQGTSVTVSSAKTTPPSVYPLAPGSAAQTNSMVTLGCLVKGYFPEPVTVTWNSGSLSSGVHTFPAVLQSDLYTLSSSVTVPSSTWPSQTVTCNVAHPASSTKVDKKIVPRDCGCKPCICTVPEVSSVFIFPPKPKDVLTITLTPKVTCVVVDISKDDPEVQFSWFVDDVEVHTAQTKPREEQINSTFRSVSELPIMHQDWLNGKEFKCRVNSAAFPAPIEKTISKTKGRPKAPQVYTIPPPKEQMAKDKVSLTCMITNFFPEDITVEWQWNGQPAENYKNTQPIMDTDGSYFVYSKLNVQKSNWEAGNTFTCSVLHEGLHNHHTEKSLSHSPGK
# VL: DIVMSQSPSSLAVSAGEKVTMSCKSSQSLLNSRTRKNYLAWYQQKPGQSPKLLIYWASTRESGVPDRFTGSGSGTDFTLTISSVQAEDLAVYYCKQSFYLRTFGGGTKLDIK
# notes: also called murine DC8E8; mouse DC8E8
# B3: AX002, humanized DC8E8 RHB/RKA (isotype not stated where tested) (antibody)
# VH: QVQLVQSGPEVKKPGSSVKVPCKASGYIFTDYVISWVKQAPGQGLEWIGEIFPRSGSTYYNEKFKGKATLTADKSTSTAYMELSSLRSEDTAVYFCARDYYGTSFAMDYWGQGTLVTVSS
# light: DIVMTQSPLSLPVTPGEPASISCKSSQSLLNSRTRKNYLAWYLQKPGQSPQLLIYWASTRESGVPDRFTGSGSGTDFTLKISRVEAEDVGVYYCKQSFYLRTFGQGTKVEIKRTVAAPSVFIFPPSDEQLKSGTASVVCLLNNFYPREAKVQWKVDNALQSGNSQESVTEQDSKDSTYSLSSTLTLSKADYEKHKVYACEVTHQGLSSPVTKSFNRGEC
# B4: AX016, humanized DC8E8 RHD/RKB (isotype not stated where tested) (antibody)
# VH: B3 VH with P9A, P21S, I28T, T30S, K38R, I48M, K67R, A68V, L70I, F95Y
# light: B3 light with T5S
# notes: also called AX016 (DB)
# Columns and labels:
# [1] = target: T1, misdisordered truncated tau 151-391/4R (human, UniProt P10636 468-708); assay: SPR Biacore T200, antibody captured by anti-IgG on CM5 chip, tau 151-391/4R as analyte, steady state analysis
# T1 construct: Recombinant, from clone tau40 in pET-17b, expressed in E. coli; numbered on the longest human tau isoform 2N4R (441 aa); An added start methionine is not mentioned; also called tauΔ(1-150;392-441)/4R; misdisordered tau II
# Method: Antibody affinity determination was carried out by SPR analysis using a Biacore T200. Anti-human IgG (GE Healthcare, cat. no. BR-1008-39) or anti-murine IgG (GE Healthcare, cat. no. BR-1008-38) was covalently immobilized to a CM5 chip (Cat. no. BR-1005-30) to the point of saturation and in accordance with the manufacturer's instructions. […] Association time was set at 150 sec and disassociation time 300 sec. Tau concentrations were chosen empirically in order to obtain curvature during the association phase. The kinetics of binding/dissociation was initially analyzed according to the 1:1 interaction model using BIAcore T200 evaluation software package 2.0.
# [2] = target: T1, misdisordered truncated tau 151-391/4R; assay: cell-based or functional assay
# [3] = target: T2, tau peptide 282-311 (human); assay: direct ELISA, tau peptide coated on plate
# T2 construct: Synthetic peptide (EZBiolabs), numbered on tau 2N4R; also called peptide derived from MTBRII
# T2 peptide: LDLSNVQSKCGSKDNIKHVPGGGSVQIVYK
# [4] = target: T1, misdisordered truncated tau 151-391/4R; assay: binding ELISA, plate coated with Tau 151-391/4R
# T1 sequence (P10636 468-708): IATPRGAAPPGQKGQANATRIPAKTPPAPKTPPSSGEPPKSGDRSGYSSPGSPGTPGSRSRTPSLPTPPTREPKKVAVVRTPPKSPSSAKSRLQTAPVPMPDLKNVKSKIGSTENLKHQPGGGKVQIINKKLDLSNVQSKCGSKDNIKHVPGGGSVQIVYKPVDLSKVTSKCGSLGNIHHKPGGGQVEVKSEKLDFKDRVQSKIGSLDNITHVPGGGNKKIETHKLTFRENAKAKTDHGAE
Binder,Kd [1] [nM],"amount of fibrillized pathological tau forms (Thioflavin T fluorescence), antibody at 10 uM [2] [%]",binding result [3],binding result [4]
B1,~10,< 5.9,–,–
B2,~10,< 4.7,binds,–
B3,–,–,–,binds
B4,9,–,–,–
